Test results from publication doi:10.1101/2022.03.03.481873v1.
Substitutions are numbered along the chain they refer to. Names and notes keep the numbering of the source.

Assays:
Experiment in all cases: purified protein
[1] = system: O=C(O)CCC(=O)C1=CC=C[C@@H](O)[C@@H]1C(=O)O; settings: 50 mM Tris pH 8.0, 0.1 mM MnCl2, 25 °C, Amycolatopsis numbering
purified protein [2] = substrate: O=C(O)CCC(=O)C1=CC=C[C@@H](O)[C@@H]1C(=O)O; settings: 50 mM Tris pH 8.0, 0.1 mM MnCl2, 25 °C
purified protein [3] = substrate: O=C(O)CCC(=O)N[C@@H](C(=O)O)c1ccccc1; settings: 200 mM Tris pH 8.0, 0.1 mM MnCl2, 25 °C
purified protein [4] = substrate: C[C@H](N)C(=O)N[C@@H](CCC(=O)O)C(=O)O; type: biochemical, Bacillus subtilis; settings: 50 mM Tris pH 8.0, 10 mM MgCl2, 25 °C
purified protein [5] = substrate: C[C@H](N)C(=O)N[C@@H](CCC(=O)O)C(=O)O; type: biochemical, Escherichia coli; settings: 50 mM Tris pH 8.0, 10 mM MgCl2, 25 °C

“LiNSAR/OSBS (Listeria innocua Clip11262; R266Q)” was tested, and the Km [1] was 163 ± 15 µM and the kcat [1] was 0.57 ± 0.02 s⁻¹.

B1: LiNSAR/OSBS (Listeria innocua Clip11262) (protein)
chain: MYFQKARLIHAELPLLAPFKTSYGELKSKDFYIIELINEEGIHGYGELEAFPLPDYTEETLSSAILIIKEQLLPLLAQRKIRKPEEIQELFSWIQGNEMAKAAVELAVWDAFAKMEKRSLAKMIGATKESIKVGVSIGLQQNVETLLQLVNQYVDQGYERVKLKIAPNKDIQFVEAVRKSFPKLSLMADANSAYNREDFLLLKELDQYDLEMIEQPFGTKDFVDHAWLQKQLKTRICLDENIRSVKDVEQAHSIGSCRAINLKLARVGGMSSALKIAEYCALNEILVWCGGMLEAGVGRAHNIALAARNEFVFPGDISASNRFFAEDIVTPAFELNQGRLKVPTNEGIGVTLDLKVLKKYTKSTEEILLNKGWS
In the case of B1, the Km (purified protein [2]) is reported as 155 ± 16 µM, the kcat (purified protein [2]) is reported as 216 ± 7 s⁻¹ and the Km (purified protein [3]) is reported as 1000 ± 270 µM. The kcat (purified protein [3]) was 3.74 ± 0.5 s⁻¹.

B2: EfNSAR/OSBS (Enterococcus faecalis V583) (protein)
chain: MNIQSIETYQVRLPLKTPFVTSYGRLEEKAFDLFVITDEQGNQGFGELVAFEQPDYVQETLVTERFIIQQHLIPLLLTEAIEQPQEVSTIFEEVKGHWMGKAALETAIWDLYAKRQQKSLTEFFGPTRRKIPVGISLGIQEDLPQLLKQVQLAVEKGYQRVKLKIRPGYDVEPVALIRQHFPNLPLMVDANSAYTLADLPQLQRLDHYQLAMIEQPFAADDFLDHAQLQRELKTRICLDENIRSLKDCQVALALGSCRSINLKIPRVGGIHEALKIAAFCQENDLLVWLGGMFESGVGRALNLQFASQPTFSFPGDISATERYFYEDIITEPFILEQGTMTVPQGLGIGVTLSQTNLLKYSQYQKIM
In the case of B2, the Km (purified protein [2]) is reported as 17 ± 3 µM, the kcat (purified protein [2]) is reported as 160 ± 7 s⁻¹ and the Km (purified protein [3]) is reported as 1500 ± 150 µM. For the same molecule, the kcat (purified protein [3]) was 34 ± 1 s⁻¹.

B3: BsDE (Bacillus subtilis subsp. subtilis str. 168; K271Q) (protein)
chain: MKIIRIETSRIAVPLTKPFKTALRTVYTAESVIVRITYDSGAVGWGEAPPTLVITGDSMDSIESAIHHVLKPALLGKSLAGYEAILHDIQHLLTGNMSAKAAVEMALYDGWAQMCGLPLYQMLGGYRDTLETDYTVSVNSPEEMAADAENYLKQGFQTLKIKVGKDDIATDIARIQEIRKRVGSAVKLRLDANQGWRPKEAVTAIRKMEDAGLGIELVEQPVHKDDLAGLKKVTDATDTPIMADESVFTPRQAFEVLQTRSADLINIKLMQAGGISGAEKINAMAEACGVECMVGSMIETKLGITAAAHFAASKRNITRFDFDAPLMLKTDVFNGGITYSGSTISMPGKPGLGIIGAALLKGEKEQ
For B3, the Km (purified protein [4]) was 508 ± 165 µM and the kcat (purified protein [4]) was 0.23 ± 0.03 s⁻¹.

B4: BsDE (Bacillus subtilis subsp. subtilis str. 168) (protein)
chain: B3 chain with Q271K
Work on B4 yielded a Km (purified protein [4]) of 452 ± 120 µM and a kcat (purified protein [4]) of 21.4 ± 2 s⁻¹.

B5: RcNSAR/OSBS (Roseiflexus castenholzii DSM 13941) (protein)
chain: MKIESITLHHIDMPLVAPFETSFGRETHRPCILIEMRADGLTGWGECVAGAGPWYAYETIGTAWHIISDFLAPMIVGQEITEPIGIVERFASVRGHPMARAAVEAAFWDLYAQARGVSLARLIGATRDRVTVGVSVGIELTLEAQLASIERFVAAGYARIKLKIKPGWDVAVVRAVRERWPDIALQVDANSAYTPDDAPIFRELDEMNLLLIEQPLHHDDIVDHARLQAQISTPICLDESIHSPEHARWALDIDACRVINIKIGRVGGLTAARQIHDLCAERGVPVWCGGMLETNVGRAVNLALAALPNFALPGDISASARYYHRDIAAPDFVLNDDSTITVPDTPGTGVAVLPERLRDVQVREVIIGKG
For B5, the Km (purified protein [2]) was 116 ± 15 µM, the kcat (purified protein [2]) was 54.6 ± 2 s⁻¹ and the Km (purified protein [3]) was 900 ± 100 µM. The kcat (purified protein [3]) was 12.7 ± 0.4 s⁻¹.

B6: EcDE (Escherichia coli K-12) (protein)
chain: MRTVKVFEEAWPLHTPFVIARGSRSEARVVVVELEEEGIKGTGECTPYPRYGESDASVMAQIMSVVPQLEKGLTREELQKILPAGAARNALDCALWDLAARRQQQSLADLIGITLPETVITAQTVVIGTPDQMANSASTLWQAGAKLLKVKLDNHLISERMVAIRTAVPDATLIVDANESWRAEGLAARCQLLADLGVAMLEQPLPAQDDAALENFIHPLPICADESCHTRSNLKALKGRYEMVNIKLDKTGGLTEALALATEARAQGFSLMLGCMLCTSRAISAALPLVPQVSFADLDGPTWLAVDVEPALQFTTGELHL
For B6, the Km (purified protein [5]) was 340 ± 60 µM and the kcat (purified protein [5]) was 11.4 ± 0.7 s⁻¹.
